In PMC10246013 (bioRxiv, 2023):
Values belong to the molecule of their own block, whether it stands above or below them.

Experiments:
[1] = molecular target: dynein-dynactin-BicDR1 complex assembled with wtDyn (wtDDR) (human | pig | mouse) (UniProt Q14204); assay: three-color TIRF comigration with processive complexes
WT dynein-GFP (human) = WT dynein-GFP (human) (UniProt Q14204); assay: real-time TIRF imaging of the initiation of motility
[2] = molecular target: wild-type human dynein (wtDyn) (human) (UniProt Q14204); assay: single-molecule colocalization
mass photometry = molecular target: the molecule itself; assay: mass photometry

Sequence of dynein-dynactin-BicDR1 complex assembled with wtDyn (wtDDR) (human | pig | mouse) (Q14204 whole entry, looked up, one chain of several): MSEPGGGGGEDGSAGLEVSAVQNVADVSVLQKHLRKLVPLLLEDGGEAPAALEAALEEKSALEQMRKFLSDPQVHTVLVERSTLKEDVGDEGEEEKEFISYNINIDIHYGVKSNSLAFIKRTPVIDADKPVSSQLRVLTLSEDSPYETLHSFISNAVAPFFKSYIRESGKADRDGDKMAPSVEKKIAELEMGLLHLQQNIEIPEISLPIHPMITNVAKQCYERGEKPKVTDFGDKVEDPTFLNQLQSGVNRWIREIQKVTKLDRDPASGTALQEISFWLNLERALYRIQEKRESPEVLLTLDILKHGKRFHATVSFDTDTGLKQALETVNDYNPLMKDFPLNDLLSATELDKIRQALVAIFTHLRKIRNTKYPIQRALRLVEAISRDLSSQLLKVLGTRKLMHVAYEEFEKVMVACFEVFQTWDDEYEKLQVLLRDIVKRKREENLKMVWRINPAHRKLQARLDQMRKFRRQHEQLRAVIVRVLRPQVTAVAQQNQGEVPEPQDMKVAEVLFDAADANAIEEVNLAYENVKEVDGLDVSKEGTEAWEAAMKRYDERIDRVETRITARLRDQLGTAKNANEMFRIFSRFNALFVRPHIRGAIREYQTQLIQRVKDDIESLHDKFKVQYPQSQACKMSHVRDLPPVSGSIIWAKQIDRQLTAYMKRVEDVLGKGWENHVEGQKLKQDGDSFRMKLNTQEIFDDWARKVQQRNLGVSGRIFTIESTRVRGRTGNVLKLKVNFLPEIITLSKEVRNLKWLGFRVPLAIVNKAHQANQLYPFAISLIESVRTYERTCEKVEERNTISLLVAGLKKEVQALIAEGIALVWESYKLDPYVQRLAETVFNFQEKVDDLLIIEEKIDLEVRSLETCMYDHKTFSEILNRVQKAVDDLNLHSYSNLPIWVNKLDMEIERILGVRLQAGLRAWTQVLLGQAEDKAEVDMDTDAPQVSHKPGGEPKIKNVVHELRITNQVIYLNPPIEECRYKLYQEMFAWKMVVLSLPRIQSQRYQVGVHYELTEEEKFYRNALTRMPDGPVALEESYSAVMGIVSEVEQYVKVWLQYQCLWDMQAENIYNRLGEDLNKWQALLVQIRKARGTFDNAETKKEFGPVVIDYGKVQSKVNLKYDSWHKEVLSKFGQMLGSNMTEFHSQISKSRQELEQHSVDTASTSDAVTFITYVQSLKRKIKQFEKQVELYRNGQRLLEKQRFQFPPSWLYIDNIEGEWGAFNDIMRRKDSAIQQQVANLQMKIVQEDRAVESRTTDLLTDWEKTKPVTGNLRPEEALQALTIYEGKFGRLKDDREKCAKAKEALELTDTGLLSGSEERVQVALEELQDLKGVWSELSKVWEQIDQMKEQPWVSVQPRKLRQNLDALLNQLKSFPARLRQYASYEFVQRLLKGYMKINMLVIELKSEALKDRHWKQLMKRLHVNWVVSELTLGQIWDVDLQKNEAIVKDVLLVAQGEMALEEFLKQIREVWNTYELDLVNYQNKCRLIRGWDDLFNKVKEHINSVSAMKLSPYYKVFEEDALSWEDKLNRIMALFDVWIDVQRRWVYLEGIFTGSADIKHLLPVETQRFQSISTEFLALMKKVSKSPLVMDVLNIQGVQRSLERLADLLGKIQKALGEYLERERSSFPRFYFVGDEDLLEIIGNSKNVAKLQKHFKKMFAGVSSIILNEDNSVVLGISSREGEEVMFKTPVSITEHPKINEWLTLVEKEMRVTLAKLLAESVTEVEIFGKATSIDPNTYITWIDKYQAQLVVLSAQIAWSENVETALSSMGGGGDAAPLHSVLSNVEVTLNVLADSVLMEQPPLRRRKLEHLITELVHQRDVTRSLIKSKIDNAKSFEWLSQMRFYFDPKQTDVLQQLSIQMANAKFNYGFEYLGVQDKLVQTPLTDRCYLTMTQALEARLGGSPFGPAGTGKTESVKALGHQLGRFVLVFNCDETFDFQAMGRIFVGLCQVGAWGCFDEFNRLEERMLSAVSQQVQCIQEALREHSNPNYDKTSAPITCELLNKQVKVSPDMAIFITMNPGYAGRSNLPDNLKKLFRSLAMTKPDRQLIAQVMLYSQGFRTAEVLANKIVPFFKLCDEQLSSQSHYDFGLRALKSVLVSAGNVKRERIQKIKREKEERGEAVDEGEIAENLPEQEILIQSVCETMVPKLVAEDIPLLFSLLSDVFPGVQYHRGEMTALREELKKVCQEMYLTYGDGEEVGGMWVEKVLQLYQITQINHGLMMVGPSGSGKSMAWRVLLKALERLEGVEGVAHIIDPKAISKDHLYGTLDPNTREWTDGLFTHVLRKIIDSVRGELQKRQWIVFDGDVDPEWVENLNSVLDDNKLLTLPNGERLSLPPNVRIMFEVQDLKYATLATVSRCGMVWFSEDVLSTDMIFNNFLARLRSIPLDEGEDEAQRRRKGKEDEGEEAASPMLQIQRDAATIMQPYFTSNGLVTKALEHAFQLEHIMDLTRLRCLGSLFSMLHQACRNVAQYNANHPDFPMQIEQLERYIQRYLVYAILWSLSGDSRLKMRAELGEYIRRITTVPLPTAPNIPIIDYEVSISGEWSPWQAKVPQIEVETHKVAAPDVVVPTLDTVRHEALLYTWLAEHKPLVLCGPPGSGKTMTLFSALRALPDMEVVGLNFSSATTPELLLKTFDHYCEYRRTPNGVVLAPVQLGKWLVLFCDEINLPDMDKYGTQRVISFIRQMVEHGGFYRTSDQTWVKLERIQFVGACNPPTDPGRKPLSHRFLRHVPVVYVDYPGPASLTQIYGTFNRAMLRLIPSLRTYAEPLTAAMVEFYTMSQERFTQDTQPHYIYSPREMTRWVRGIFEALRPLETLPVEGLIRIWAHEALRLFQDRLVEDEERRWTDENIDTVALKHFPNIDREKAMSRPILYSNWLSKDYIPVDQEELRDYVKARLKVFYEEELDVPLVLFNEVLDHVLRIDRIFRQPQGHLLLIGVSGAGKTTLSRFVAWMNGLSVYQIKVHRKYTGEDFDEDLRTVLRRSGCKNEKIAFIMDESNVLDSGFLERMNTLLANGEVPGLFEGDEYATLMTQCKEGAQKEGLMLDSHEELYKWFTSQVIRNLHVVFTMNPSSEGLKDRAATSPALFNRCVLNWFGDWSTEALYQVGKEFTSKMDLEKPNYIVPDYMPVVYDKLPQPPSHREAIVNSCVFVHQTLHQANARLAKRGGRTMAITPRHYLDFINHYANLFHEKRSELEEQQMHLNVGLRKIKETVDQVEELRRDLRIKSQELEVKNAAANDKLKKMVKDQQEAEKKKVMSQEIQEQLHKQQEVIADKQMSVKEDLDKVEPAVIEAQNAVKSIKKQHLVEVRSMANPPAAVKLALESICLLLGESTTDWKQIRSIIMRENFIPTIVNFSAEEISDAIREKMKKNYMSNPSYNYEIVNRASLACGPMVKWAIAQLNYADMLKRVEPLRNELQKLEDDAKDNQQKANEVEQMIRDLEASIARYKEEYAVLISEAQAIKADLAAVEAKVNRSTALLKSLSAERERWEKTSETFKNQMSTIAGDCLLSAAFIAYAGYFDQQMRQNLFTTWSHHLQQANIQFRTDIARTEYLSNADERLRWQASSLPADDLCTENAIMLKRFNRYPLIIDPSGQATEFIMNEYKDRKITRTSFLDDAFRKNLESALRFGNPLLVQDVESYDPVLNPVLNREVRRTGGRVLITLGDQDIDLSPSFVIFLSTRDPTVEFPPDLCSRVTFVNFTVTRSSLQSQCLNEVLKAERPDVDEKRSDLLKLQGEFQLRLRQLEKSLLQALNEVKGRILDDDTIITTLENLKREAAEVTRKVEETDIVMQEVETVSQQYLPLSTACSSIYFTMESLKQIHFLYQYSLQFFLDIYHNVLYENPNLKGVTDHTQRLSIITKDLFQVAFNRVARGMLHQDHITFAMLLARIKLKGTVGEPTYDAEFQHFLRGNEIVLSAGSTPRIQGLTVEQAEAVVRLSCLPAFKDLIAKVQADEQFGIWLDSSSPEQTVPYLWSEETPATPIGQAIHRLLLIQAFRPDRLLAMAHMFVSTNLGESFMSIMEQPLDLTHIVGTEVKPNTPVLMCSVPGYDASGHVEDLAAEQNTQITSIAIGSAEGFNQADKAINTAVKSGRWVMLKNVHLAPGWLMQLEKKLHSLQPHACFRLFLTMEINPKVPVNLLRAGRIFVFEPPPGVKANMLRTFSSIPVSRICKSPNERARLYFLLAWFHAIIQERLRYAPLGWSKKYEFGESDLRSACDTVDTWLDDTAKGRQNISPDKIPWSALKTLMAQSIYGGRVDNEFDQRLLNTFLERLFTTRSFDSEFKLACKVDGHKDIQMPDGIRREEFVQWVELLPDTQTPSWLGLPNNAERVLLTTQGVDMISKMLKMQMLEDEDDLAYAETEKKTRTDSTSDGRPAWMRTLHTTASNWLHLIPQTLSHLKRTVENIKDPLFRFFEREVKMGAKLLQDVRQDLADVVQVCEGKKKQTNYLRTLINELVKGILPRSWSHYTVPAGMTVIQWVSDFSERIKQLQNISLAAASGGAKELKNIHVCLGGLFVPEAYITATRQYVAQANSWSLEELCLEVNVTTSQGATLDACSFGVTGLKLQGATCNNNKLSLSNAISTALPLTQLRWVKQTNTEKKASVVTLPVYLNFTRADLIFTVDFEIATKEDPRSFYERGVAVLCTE

percent of DDR complexes co-migrating with Lis1 [1]: 70%
Molecule: human Lis1 (full-length) (from UniProt P43034 1-410) (natural protein)

percent of dynein-colocalized Nde1 immediately released, with Lis1 (WT dynein-GFP (human)): 50%
percent reduction of Nde1 colocalization to dynein [2]: 37%
Molecule: pig brain dynactin (from UniProt A0A287B8J2 1-1281) (complex)

Second part, the molecule before the results:

B1: human Nde1 (full-length) (natural protein)
chain: MEDSGKTFSSEEEEANYWKDLAMTYKQRAENTQEELREFQEGSREYEAELETQLQQIETRNRDLLSENNRLRMELETIKEKFEVQHSEGYRQISALEDDLAQTKAIKDQLQKYIRELEQANDDLERAKRATIMSLEDFEQRLNQAIERNAFLESELDEKENLLESVQRLKDEARDLRQELAVQQKQEKPRTPMPSSVEAERTDTAVQATGSVPSTPIAHRGPSSSLNTPGSFRRGLDDSTGGTPLTPAARISALNIVGDLLRKVGALESKLASCRNLVYDQSPNRTGGPASGRSSKNRDGGERRPSSTSVPLGDKGLDTSCRWLSKSTTRSSSSC
modifications: LD655 or LD555 dye in the fluorescence assays
stoichiometry N (mass photometry): 2

B2: Nde1^1–190 (N-terminus of human Nde1) (domain or fragment)
chain: MEDSGKTFSSEEEEANYWKDLAMTYKQRAENTQEELREFQEGSREYEAELETQLQQIETRNRDLLSENNRLRMELETIKEKFEVQHSEGYRQISALEDDLAQTKAIKDQLQKYIRELEQANDDLERAKRATIMSLEDFEQRLNQAIERNAFLESELDEKENLLESVQRLKDEARDLRQELAVQQKQEKPR
modifications: LD555 dye in the size exclusion experiment
stoichiometry N (mass photometry): 2
